Data from the RNAGym collection of RNA variant scans (doi:10.7554/elife.80360).

B1: CPEB3 Ribozyme (parent)
chain: GGGGGCCACAGCAGAAGCGUUCACGUCGCGGCCCCUGUCAGAUUCUGGUGAAUCUGCGAAUUCUGCUGU

Variants of: B1
Experiment: self-cleavage, relative activity (ratio to wild type); higher = more cleavage; co-transcriptional

Variant | self-cleavage
GGGGGCCACAGCAGAAGCGUUCACGUCGCGGCCCCUGUCAGAUUUUUGUGAAUCUGCGAAUUCUGCUGU [C45U G47U] | 1.02
GGGGGCCACAGCAGAAGCGUUCACGUCGCGGCCCCUGUCAGAUUUUAGUGAAUCUGCGAAUUCUGCUGU [C45U G47A] | 1.03
GGGGGCCACAGCAGAAGCGUUCACGUCGCGGCCCCUGUCAGAUUUUGGAGAAUCUGCGAAUUCUGCUGU [C45U U49A] | 0.993
GGGGGCCACAGCAGAAGCGUUCACGUCGCGGCCCCUGUCAGAUUUUGGUGAAUCUGCGUAUUCUGCUGU [C45U A59U] | 0.837
GGGGGCCACAGCAGAAGCGUUCACGUCGCGGCCCCUGUCAGAUUUUGGUGAAUCUGCGGAUUCUGCUGU [C45U A59G] | 0.98
GGGGGCCACAGCAGAAGCGUUCACGUCGCGGCCCCUGUCAGAUUUUGGUGACUCUGCGAAUUCUGCUGU [C45U A52C] | 0.988
GGGGGCCACAGCAGAAGCGUUCACGUCGCGGCCCCUGUCAGAUUUUGGUGAUUCUGCGAAUUCUGCUGU [C45U A52U] | 0.972
GGGGGCCACAGCAGAAGCGUUCACGUCGCGGCCCCUGUCAGAUUUUGGUGAGUCUGCGAAUUCUGCUGU [C45U A52G] | 1.01
GGGGGCCACAGCAGAAGCGUUCACGUCGCGGCCCCUGUCAGAUUUUGGUGAAUCUGCGAAUUCUGCUGU [C45U] | 0.996
GGGGGCCACAGCAGAAGCGUUCACGUCGCGGCCCCUGUCAGAUUUUGGUGAACCUGCGAAUUCUGCUGU [C45U U53C] | 0.834
GGGGGCCACAGCAGAAGCGUUCACGUCGCGGCCCCUGUCAGAUUUUGGUGAAUCUGAGAAUUCUGCUGU [C45U C57A] | 0.32
GGGGGCCACAGCAGAAGCGUUCACGUCGCGGCCCCUGUCAGAUUUUGGUGAAUCUGGGAAUUCUGCUGU [C45U C57G] | 0.319
GGGGGCCACAGCAGAAGCGUUCACGUCGCGGCCCCUGUCAGAUUUUGCUGAAUCUGCGAAUUCUGCUGU [C45U G48C] | 0.975
GGGGGCCACAGCAGAAGCGUUCACGUCGCGGCCCCUGUCAGAUUUUGAUGAAUCUGCGAAUUCUGCUGU [C45U G48A] | 0.992
GGGGGCCACAGCAGAAGCGUUCACGUCGCGGCCCCUGUCAGAUUUUGUUGAAUCUGCGAAUUCUGCUGU [C45U G48U] | 1.01
GGGGGCCACAGCAGAAGCGUUCACGUCGCGGCCCCUGUCAGAUUUUGGUGAAUCUGCGAAUUCUGGUGU [C45U C66G] | 0.87
GGGGGCCACAGCAGAAGCGUUCACGUCGCGGCCCCUGUCAGAUUUUGGUGAAUCUGCGAAUUCUGAUGU [C45U C66A] | 0.843
GGGGGCCACAGCAGAAGCGUUCACGUCGCGGCCCCUGUCAGAUUGUGGUGAAUCUGCGAAUUCUGCUGA [C45G U69A] | 1.01
GGGGGCCACAGCAGAAGCGUUCACGUCGCGGCCCCUGUCAGAUUGUGGUGAAUCUGCGAAUUCUGCUGC [C45G U69C] | 1.05
GGGGGCCACAGCAGAAGCGUUCACGUCGCGGCCCCUGUCAGAUUUUGGUGAAUCUGCGAAUUAUGCUGU [C45U C63A] | 0.838

Variant | self-cleavage
GGGGGCCACAGCAGAAGCGUUCACGUCGCGGCCCCUGUCAGAUUUUGGUGAAUAUGCGAAUUCUGCUGU [C45U C54A] | 0.681
GGGGGCCACAGCAGAAGCGUUCACGUCGCGGCCCCUGUCAGAUUUUGGUGAAUCUGCGAAUUCUGCUCU [C45U G68C] | 1
GGGGGCCACAGCAGAAGCGUUCACGUCGCGGCCCCUGUCAGAUUUUGGUGAAUCUGCGAAUUCUGCUUU [C45U G68U] | 1.01
GGGGGCCACAGCAGAAGCGUUCACGUCGCGGCCCCUGUCAGAUUUUGGUGAAUCUCCGAAUUCUGCUGU [C45U G56C] | 0.694
GGGGGCCACAGCAGAAGCGUUCACGUCGCGGCCCCUGUCAGAUUUUGGUGAAUCUUCGAAUUCUGCUGU [C45U G56U] | 0.897
GGGGGCCACAGCAGAAGCGUUCACGUCGCGGCCCCUGUCAGAUUGUGGUGAAUCUGCGAAUUCUGCAGU [C45G U67A] | 0.962
GGGGGCCACAGCAGAAGCGUUCACGUCGCGGCCCCUGUCAGAUUGUGGUGAAUCUGCGAAUUCUGCCGU [C45G U67C] | 0.917
GGGGGCCACAGCAGAAGCGUUCACGUCGCGGCCCCUGUCAGAUUUUGGUGAAUCUGCGAAUUCUUCUGU [C45U G65U] | 0.813
GGGGGCCACAGCAGAAGCGUUCACGUCGCGGCCCCUGUCAGAUUUUGGUGAAUCUGCGAAUUCUCCUGU [C45U G65C] | 0.719
GGGGGCCACAGCAGAAGCGUUCACGUCGCGGCCCCUGUCAGAUUUUGGUGAAUCUGCGAUUUCUGCUGU [C45U A60U] | 0.469
GGGGGCCACAGCAGAAGCGUUCACGUCGCGGCCCCUGUCAGAUUUUGGUGAAUCUGCGAGUUCUGCUGU [C45U A60G] | 0.9
GGGGGCCACAGCAGAAGCGUUCACGUCGCGGCCCCUGUCAGAUUUUGGUGAAUCUGCGACUUCUGCUGU [C45U A60C] | 0.33
GGGGGCCACAGCAGAAGCGUUCACGUCGCGGCCCCUGUCAGAUUUUGGUGAAUCAGCGAAUUCUGCUGU [C45U U55A] | 0.825
GGGGGCCACAGCAGAAGCGUUCACGUCGCGGCCCCUGUCAGAUUUUGGUGAAUCGGCGAAUUCUGCUGU [C45U U55G] | 0.668
GGGGGCCACAGCAGAAGCGUUCACGUCGCGGCCCCUGUCAGAUUUUGGUGAAUCCGCGAAUUCUGCUGU [C45U U55C] | 0.755
GGGGGCCACAGCAGAAGCGUUCACGUCGCGGCCCCUGUCAGAUUUUGGUAAAUCUGCGAAUUCUGCUGU [C45U G50A] | 1.01
GGGGGCCACAGCAGAAGCGUUCACGUCGCGGCCCCUGUCAGAUUUUGGUCAAUCUGCGAAUUCUGCUGU [C45U G50C] | 1.02
GGGGGCCACAGCAGAAGCGUUCACGUCGCGGCCCCUGUCAGAUUUUGGUGCAUCUGCGAAUUCUGCUGU [C45U A51C] | 0.999
GGGGGCCACAGCAGAAGCGUUCACGUCGCGGCCCCUGUCAGAUUUUGGUGUAUCUGCGAAUUCUGCUGU [C45U A51U] | 0.947
